The text below walks through data of article PMC8498191, “Structural and Mechanistic Insights Into Dimethylsulfoxide Formation Through Dimethylsulfide Oxidation” (Frontiers in Microbiology, 2021).

Data set [1] has as its target T1, Tmm7211 (Candidatus Pelagibacter sp. HTCC7211, UniProt B6BQB2).
T1 construct: gene tmm; full-length synthesized gene (1335 bp, 444 residues, 52 kDa), N-terminal His tag (pET28a), E. coli BL21(DE3); Ni-NTA and Superdex-200
T1 sequence (B6BQB2 1-444): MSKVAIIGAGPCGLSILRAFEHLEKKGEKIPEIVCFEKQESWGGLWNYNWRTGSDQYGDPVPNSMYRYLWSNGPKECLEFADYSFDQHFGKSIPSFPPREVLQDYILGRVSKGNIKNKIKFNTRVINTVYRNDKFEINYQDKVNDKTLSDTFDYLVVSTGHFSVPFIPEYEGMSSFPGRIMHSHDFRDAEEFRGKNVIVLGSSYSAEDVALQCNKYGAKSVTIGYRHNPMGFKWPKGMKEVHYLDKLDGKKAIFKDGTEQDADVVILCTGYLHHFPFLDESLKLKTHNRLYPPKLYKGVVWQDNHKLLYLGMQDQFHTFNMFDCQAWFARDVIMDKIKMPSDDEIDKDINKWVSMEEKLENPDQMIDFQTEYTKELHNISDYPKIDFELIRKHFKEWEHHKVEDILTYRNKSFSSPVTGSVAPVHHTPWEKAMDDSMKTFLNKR
In words: NADPH oxidation at […] nm. It is filed as biochemical. The conditions noted are these: read-out: Apparent KM; 0.25 mM NADPH, 1 μM enzyme, 10 mM Tris-HCl pH 7.0, 100 mM NaCl.

Data set [2] has as its target T1, Tmm7211. The data set can be described thus: X-ray crystal structure, […] Å. The format is binding.
Substrate in data set [3]: CSC
In words: purified protein. It is filed as biochemical, Candidatus Pelagibacter sp. HTCC7211. The conditions noted are these: 0.25 mM NADPH, 1 μM enzyme, 10 mM Tris-HCl pH 7.0, 100 mM NaCl; pH 7.0.

Substrate in data set [4]: NC(=O)C1=CN([C@@H]2O[C@H](COP(=O)(O)OP(=O)(O)OC[C@H]3O[C@@H](n4cnc5c(N)ncnc54)[C@H](OP(=O)(O)O)[C@@H]3O)[C@@H](O)[C@H]2O)C=CC1
In words: purified protein. The conditions noted are these: 1 mM DMS, 1.5 μM enzyme. It is filed as biochemical, Candidatus Pelagibacter sp. HTCC7211.

Substrate in data set [5]: CN(C)C
In words: purified protein. The conditions noted are these: 0.25 mM NADPH, 1 μM enzyme, 10 mM Tris-HCl pH 7.0, 100 mM NaCl; pH 7.0. It is filed as biochemical, Candidatus Pelagibacter sp. HTCC7211.

Substrate in data set [6]: Cn1cc[nH]c1=S
The data set can be described thus: purified protein. The note with it: 0.25 mM NADPH, 1 μM enzyme, 10 mM Tris-HCl pH 7.0, 100 mM NaCl.

Data set [7] deals with the molecule itself. In words: SEC; analytical gel filtration on a calibrated Superose 6 column, 10 mM Tris-HCl (pH 8.0), 100 mM NaCl; apparent mass 95 kDa against 52 kDa calculated for the monomer.

Positions count from the first letter of the chain named. Names and notes keep the numbering of the source.

As for `CNC` [DMA], the Km on Tmm7211 [1] amounted to 181 ± 23.7 µM.
Turning to `Cc1cc2nc3c(=O)[nH]c(=O)nc-3n(C[C@H](O)[C@H](O)[C@H](O)COP(=O)(O)OP(=O)(O)OC[C@H]3O[C@@H](n4cnc5c(N)ncnc54)[C@H](O)[C@@H]3O)c2cc1C` [FAD], on Tmm7211 [2] (FAD bound during expression in E. coli), the “X-ray crystal structure, 1.8 Å” value is “the NADP^+ and FAD molecules can be clearly observed in the structure”.
Regarding `NC(=O)c1ccc[n+]([C@@H]2O[C@H](COP(=O)(O)OP(=O)(O)OC[C@H]3O[C@@H](n4cnc5c(N)ncnc54)[C@H](OP(=O)(O)O)[C@@H]3O)[C@@H](O)[C@H]2O)c1` [NADP^+], on Tmm7211 [2] (crystallised with 5 mM NADPH), the “X-ray crystal structure, 1.8 Å” value was “the NADP^+ and FAD molecules can be clearly observed in the structure”.

B1: trimethylamine monooxygenase from Pelagibacter sp. HTCC7211 (Tmm_(7211)) (enzyme, UniProt B6BQB2 1-444, looked up)
chain: T1 sequence (B6BQB2 1-444)
notes: trimethylamine monooxygenase (Tmm, EC 1.14.13.148), a bacterial flavin-containing monooxygenase of the SAR11 bacterium Pelagibacter sp; HTCC7211; 1335-bp full-length tmm gene, synthesised; 444 amino acid residues, calculated mass 52 kDa; NADPH (5 mM) was added before crystallisation, and NADP+ and FAD are seen in the structure; Cloned in pET28a; also called WT Tmm_(7211); recombinant Tmm_(7211); …
B1: the Michaelis constant (Km) in “purified protein [3]” is 250.5 ± 23.0 µM; in “purified protein [4]” it was 12.8 ± 0.4 µM; in “purified protein [5]” it was 139.0 ± 10.7 µM; in the data set “purified protein [6]”, 116.2 ± 13.8 µM. The kcat in the data set “purified protein [3]” worked out at 0.075 ± 0.005 s⁻¹; in “purified protein [4]”, 0.075 ± 0.005 s⁻¹; in the data set “purified protein [5]”, 0.373 ± 0.0133 s⁻¹; in “purified protein [6]”, 0.0867 s⁻¹. The specificity constant (kcat/Km) worked out at 300 M⁻¹ s⁻¹ in “purified protein [3]”, 2690 M⁻¹ s⁻¹ in the data set “purified protein [5]” and 747 M⁻¹ s⁻¹ in “purified protein [6]”. The “stoichiometry N” value in data set [7] was 2.

B2: Tmm7211 (Candidatus Pelagibacter sp. HTCC7211; R409A) (protein)
chain: T1 sequence (B6BQB2 1-444) with R409A
notes: full-length synthesized gene (1335 bp, 444 residues, 52 kDa), N-terminal His tag (pET28a), E. coli BL21(DE3); Ni-NTA and Superdex-200
For the molecule B2, in the data set “purified protein [4]”, the Km was determined as 44.9 ± 5.6 µM and the turnover number (kcat) worked out at 0.045 ± 0.00167 s⁻¹.

B3: Tmm7211 (Candidatus Pelagibacter sp. HTCC7211; S203A) (protein)
chain: T1 sequence (B6BQB2 1-444) with S203A
notes: as for B2
As for B3, in the data set “purified protein [4]”, the Km is 134.8 ± 11.1 µM and the kcat was 0.0167 ± 0.00167 s⁻¹.

B4: Tmm7211 (Candidatus Pelagibacter sp. HTCC7211; N288A) (protein)
chain: T1 sequence (B6BQB2 1-444) with N288A
notes: as for B2
As to B4, in “purified protein [4]”, the Km is 61.1 ± 4.0 µM and the kcat is 0.0217 ± 0.00167 s⁻¹.

B5: Tmm7211 (Candidatus Pelagibacter sp. HTCC7211; N72A) (protein)
chain: T1 sequence (B6BQB2 1-444) with N72A
notes: as for B2
Turning to B5, in “purified protein [4]”, the Km turned out to be 34.1 ± 1.0 µM and the kcat amounted to 0.0317 ± 0.00333 s⁻¹.

B6: Tmm7211 (Candidatus Pelagibacter sp. HTCC7211; D314A) (protein)
chain: T1 sequence (B6BQB2 1-444) with D314A
notes: as for B2
Regarding B6, in the data set “purified protein [4]”, the Michaelis constant (Km) worked out at 32.0 ± 0.6 µM and the kcat turned out to be 0.035 ± 0.00167 s⁻¹.

B7: Tmm7211 (Candidatus Pelagibacter sp. HTCC7211; H227A) (protein)
chain: T1 sequence (B6BQB2 1-444) with H227A
notes: as for B2
On to B7, for which, in the data set “purified protein [4]”, the Km worked out at 41.2 ± 2.3 µM and the kcat was 0.0417 ± 0.00333 s⁻¹.

B8: Tmm7211 (Candidatus Pelagibacter sp. HTCC7211; R226A) (protein)
chain: T1 sequence (B6BQB2 1-444) with R226A
notes: as for B2
Take B8: in “purified protein [4]”, the Michaelis constant (Km) amounted to 101.8 ± 8.6 µM and the kcat was found to be 0.015 ± 0.00167 s⁻¹.

B9: Tmm7211 (Candidatus Pelagibacter sp. HTCC7211; D314E) (protein)
chain: T1 sequence (B6BQB2 1-444) with D314E
notes: as for B2
With B9, in the data set “purified protein [4]”, the Km stood at 9.7 ± 0.5 µM and the kcat worked out at 0.0867 ± 0.00333 s⁻¹.

A word on the Km: it is the substrate concentration at which the rate is half of its maximum. Broadly, the kcat is the maximal rate divided by the concentration of active sites. Usually kcat/Km stands for the second-order rate constant that governs catalysis at low substrate concentration. In general, stoichiometry N refers to the number of molecules, sites or subunits per partner or assembly.
